Laboratory results reported in patent publication US20060280645A1, “Method for terminal sterilization of transdermal delivery devices” (priority 2005, published 2006).

Assay: Terminal sterilization by e-beam irradiation: BNP purity and degradation products by RP-HPLC
Assay type: physicochemical
Settings: best performing system (Example 4)
Description: FIGS. 14-16 detail the major degradation pathways for BNP coated on microprojections for all conditions treated by e-beam. […] All modes of degradation are reduced for the microprojection members packaged with desiccant and pre-dried retainer rings and purged with argon.
In this example, methionine from JT Baker (Phillipsburg, N.J.) was added to the BNP formulations in the amount of 1% by weight. These coating formulations were then irradiated using either e-beam or gamma radiation at varying temperatures and under varying atmospheric conditions. FIGS. 17-20 show the purity and degradation of the samples following gamma irradiation and FIGS. 21-24 show the purity and degradation of the samples following e-beam irradiation.
Further, systems packaged with pre-dried retainer rings performed better than systems stored with desiccant when terminally sterilized by e-beam. The best performing system retained 95.1% of the BNP purity, representing only approximately a 2% drop from the initial material purity.

## BNP
  BNP purity retained: 95.1%
  drop from the initial material purity: ~2%
